Data published in patent US20260242478A1 (published 2026).
Where no end group is shown, it is not given here.

B1: Phage-528 (peptide)
peptide: YCDGHLPQYMAKCL
modifications: cysteine pairing not given here; also: displayed on phage as fusion to pIII, linker, pIII sequence and order not given here
notes: Clonal phage supernatant; not shown: pIII filament protein of the bacteriophage to which the peptide is fused
B2: Phage-533 (peptide)
peptide: YCEGHLPQYMAKCL
modifications: cysteine pairing not given here; also: displayed on phage as fusion to pIII, linker, pIII sequence and order not given here
notes: as for B1
B3: Phage-490 (peptide, not shown: large carriers)
peptide: YCEGHSSEYIQKCL
notes: Clonal phage of the Peptide-87 optimisation library, tested as crude supernatant
B4: Phage-489 (peptide, not shown: large carriers)
peptide: YCEGHSQEYLWKCL
notes: as for B3
B5: Phage-19 (peptide, not shown: large carriers)
peptide: MDWCPIDLWNECFF
modifications: cysteine pairing not given here; also: phage-displayed pIII fusion, pIII and linker not given here
notes: Clonal phage supernatant
B6: Phage-497 (peptide, not shown: large carriers)
peptide: YCEGHAPEYIGKCL
notes: as for B3
B7: Phage-495 (peptide, not shown: large carriers)
peptide: YCEGHLPEYIQKCL
notes: as for B3
B8: Phage-496 (peptide, not shown: large carriers)
peptide: YCEGHLPEYIWKCL
notes: as for B3
B9: Phage-529 (peptide)
peptide: YCQGHLPMYMAKCL
modifications: cysteine pairing not given here; also: displayed on phage as fusion to pIII, linker, pIII sequence and order not given here
notes: as for B1
B10: Phage-26 (peptide, not shown: large carriers)
peptide: MDWCPRDLWHECFA
modifications: cysteine pairing not given here; also: phage-displayed pIII fusion, pIII and linker not given here
notes: Clonal phage supernatant
B11: Phage-498 (peptide, not shown: large carriers)
peptide: YCDGHSPIYMWKCL
notes: as for B3
B12: Phage-527 (peptide)
peptide: YCDGHLPEYMSKCL
modifications: cysteine pairing not given here; also: displayed on phage as fusion to pIII, linker, pIII sequence and order not given here
notes: as for B1
B13: Phage-536 (peptide)
peptide: YCDGHLPIYMSKCL
modifications: cysteine pairing not given here; also: displayed on phage as fusion to pIII, linker, pIII sequence and order not given here
notes: as for B1
B14: Phage-530 (peptide)
peptide: YCDGHLPEYMMKCL
modifications: cysteine pairing not given here; also: displayed on phage as fusion to pIII, linker, pIII sequence and order not given here
notes: as for B1
B15: Phage-27 (peptide, not shown: large carriers)
peptide: MDWCPRDLWHLCFS
modifications: cysteine pairing not given here; also: displayed on phage as fusion to pIII, linker and pIII sequence not given here
notes: Clonal phage supernatant
B16: Phage-30 (peptide, not shown: large carriers)
peptide: MDWCPRDMWDECFA
modifications: cysteine pairing not given here; also: peptide displayed as fusion to phage pIII
notes: Clonal phage supernatant
B17: Phage-492 (peptide, not shown: large carriers)
peptide: YCWSHSPPFIKKCY
notes: as for B3
B18: Phage-499 (peptide, not shown: large carriers)
peptide: YCEGHAPEYMAKCL
notes: as for B3
B19: Phage-486 (peptide, not shown: large carriers)
peptide: YCEGHLPEYLGKCL
notes: as for B3
B20: Phage-488 (peptide, not shown: large carriers)
peptide: YCEGHLPEYLAKCL
notes: as for B3
B21: Phage-491 (peptide, not shown: large carriers)
peptide: HCSGHHWLQVWKCF
notes: as for B3
B22: Phage-494 (peptide, not shown: large carriers)
peptide: YCEGHLPEYLEKCV
notes: as for B3
B23: Phage-34 (peptide, not shown: large carriers)
peptide: MDWCPRHMWNYCFA
modifications: cysteine pairing not given here; also: displayed on phage as fusion to pIII, linker and pIII sequence not given here
notes: Clonal phage supernatant
B24: Phage-9 (peptide, not shown: large carriers)
peptide: MDWCPRERWVDCFF
modifications: cysteine pairing not given here; also: displayed on phage as fusion to pIII, linker not given here
notes: Clonal phage supernatant
B25: Phage-487 (peptide, not shown: large carriers)
peptide: YCEGHLPEYREKCL
notes: as for B3
B26: Phage-493 (peptide, not shown: large carriers)
peptide: YCEGHLPEYRNKCL
notes: as for B3
B27: Phage-25 (peptide, not shown: large carriers)
peptide: MDWCPRDLWDLCFA
modifications: cysteine pairing not given here; also: phage-displayed pIII fusion, pIII and linker not given here
notes: Clonal phage supernatant
B28: Phage-526 (peptide)
peptide: YCEGHSPEYMAKCL
modifications: cysteine pairing not given here; also: displayed on phage as fusion to pIII, linker, pIII sequence and order not given here
notes: as for B1

What was measured:
[1] = target: T1, anti-CD28 scFv (VH - linker 1 - VL) (biotinylated (site not stated)); test: same phage ELISA, wells pre-incubated with soluble CD28 (competitor)
[2] = target: T1, anti-CD28 scFv (VH - linker 1 - VL); test: phage ELISA; biotinylated anti-CD28 scFv on neutravidin plate, clonal phage supernatant, anti-M13-HRP detection;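 further: before phage addition, wells were pretreated with soluble CD28 protein in blocking buffer, or with blocking buffer only as the comparison, then phage were added without washing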
Experimental: Clonal phage were harvested as crude supernatants and screened via standard enzyme linked immunosorbent assays (ELISAs). […] Prior to the addition of clonal phage, wells were incubated with blocking buffer and CD28 soluble protein or blocking buffer alone. Without washing or aspirating, clonal phage supernatants were then added to the wells and incubated for a short time. Wells were then washed followed by detection of bound phage using a horse radish peroxidase conjugated anti-M13 antibody.

[3] = target: T2, Anti-CD28 Fab (SEQ ID NOs: 696, 697); test: phage binding ELISA; biotinylated Fab on neutravidin plate, clonal phage supernatant, anti-M13 HRP;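 further: clones picked after panning, added to wells pre-incubated with CD28 antigen or with blocking buffer only, no wash before phage addition, bound phage read after washing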
T2 construct: Biotinylated and captured on neutravidin coated plates in the phage ELISA
T2 sequence (VH, as listed by the source, chain 1 of 2): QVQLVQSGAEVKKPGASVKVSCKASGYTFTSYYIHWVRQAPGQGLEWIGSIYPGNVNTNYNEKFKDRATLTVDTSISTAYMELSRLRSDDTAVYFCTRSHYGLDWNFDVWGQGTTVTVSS
T2 sequence (VL, as listed by the source, chain 2 of 2): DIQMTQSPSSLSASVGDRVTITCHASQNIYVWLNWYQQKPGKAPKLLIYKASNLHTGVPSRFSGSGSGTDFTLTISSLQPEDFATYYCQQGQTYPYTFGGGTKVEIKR
Experimental: (§1) After panning, phage infected bacteria were plated out and colonies picked into 96 well blocks. Clonal phage was then amplified and separated from bacterial cells via centrifugation.
(§2) Clonal phage were harvested as crude supematants and screened via standard ELISAs. […] Prior to the addition of clonal phage, wells were incubated with blocking buffer and CD28 antigen or blocking buffer alone. Without washing or aspirating, clonal phage supematants were then added to the wells and incubated for a short time. Wells were then washed followed by detection of bound phage using a horse radish conjugated anti-M13 antibody. Clonal phage of interest were then sent for sequence analysis.

[4] = target: T2, Anti-CD28 Fab (SEQ ID NOs: 696, 697); test: phage binding ELISA; Fab wells pre-incubated with CD28 antigen as competitor, anti-M13 HRP
Experimental: as §1, §2

[5] = target: T3, Anti-CD28 Fab (SEQ ID NOs: 696, 697); test: phage binding ELISA; biotinylated anti-CD28 Fab on neutravidin plate, clonal phage supernatant, anti-M13 HRP detection
T3 construct: Biotinylated and captured on neutravidin coated plates in the phage ELISA
T3 sequence (VH, as listed by the source, chain 1 of 2): as the sequence (VH, as listed by the source, chain 1 of 2) above
T3 sequence (VL, as listed by the source, chain 2 of 2): as the sequence (VL, as listed by the source, chain 2 of 2) above

[6] = target: T3, Anti-CD28 Fab (SEQ ID NOs: 696, 697); test: phage binding ELISA; Fab-coated wells pre-incubated with CD28 antigen as competitor, anti-M13 HRP detection;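 further: crude clonal phage supernatants from panned colonies added to wells after blocking buffer plus CD28 treatment, bound phage measured after a brief incubation and washing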
Experimental: as §1, §2

T1 sequence (scFv, as listed by the source): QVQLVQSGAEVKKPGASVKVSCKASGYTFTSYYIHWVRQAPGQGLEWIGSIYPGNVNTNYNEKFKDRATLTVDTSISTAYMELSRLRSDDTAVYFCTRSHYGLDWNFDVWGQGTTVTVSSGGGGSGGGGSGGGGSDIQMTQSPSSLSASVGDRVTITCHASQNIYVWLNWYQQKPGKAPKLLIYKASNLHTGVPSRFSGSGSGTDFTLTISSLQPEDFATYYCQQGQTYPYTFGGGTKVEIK

| Binder | CD28 scFv signal in presence of CD28 [1] | CD28 scFv signal [2] | Anti-CD28 Fab signal (phage binding ELISA) [5] | Anti-CD28 Fab signal in the presence of CD28 (phage binding ELISA) [6] | other results |
| --- | --- | --- | --- | --- | --- |
| MDWCPRFMWDECFN (peptide, not shown: large carriers, Clonal phage supernatant) [Phage-33] | 0.256 | 2.68 | – | – | – |
| B1 | – | – | – | – | Anti-CD28 Fab (SEQ ID NOs: 696, 697) signal [3]: 2.35; Anti-CD28 Fab signal in the presence of CD28 [4]: 0.15 |
| B2 | – | – | – | – | Anti-CD28 Fab (SEQ ID NOs: 696, 697) signal [3]: 2.34; Anti-CD28 Fab signal in the presence of CD28 [4]: 0.14 |
| B3 | – | – | 2.25 | 0.1 | – |
| MDWCPIHLWHVCFN (peptide, not shown: large carriers, cysteine pairing not given here; also: displayed as fusion to phage pIII, Clonal phage supernatant) [Phage-20] | 0.167 | 2.53 | – | – | – |
| B4 | – | – | 2.36 | 0.07 | – |
| B5 | 0.187 | 2.52 | – | – | – |
| B6 | – | – | 2.1 | 0.07 | – |
| MDWCPIYLWSECFN (peptide, not shown: large carriers, Clonal phage supernatant) [Phage-21] | 0.513 | 2.63 | – | – | – |
| B7 | – | – | 1.9 | 0.08 | – |
| B8 | – | – | 2.32 | 0.09 | – |
| B9 | – | – | – | – | Anti-CD28 Fab (SEQ ID NOs: 696, 697) signal [3]: 2.34; Anti-CD28 Fab signal in the presence of CD28 [4]: 0.08 |
| B10 | 0.277 | 2.71 | – | – | – |
| B11 | – | – | 2.47 | 0.09 | – |
| B12 | – | – | – | – | Anti-CD28 Fab (SEQ ID NOs: 696, 697) signal [3]: 2.35; Anti-CD28 Fab signal in the presence of CD28 [4]: 0.14 |
| B13 | – | – | – | – | Anti-CD28 Fab (SEQ ID NOs: 696, 697) signal [3]: 2.32; Anti-CD28 Fab signal in the presence of CD28 [4]: 0.08 |
| B14 | – | – | – | – | Anti-CD28 Fab (SEQ ID NOs: 696, 697) signal [3]: 2.34; Anti-CD28 Fab signal in the presence of CD28 [4]: 0.11 |
| B15 | 0.29 | 2.59 | – | – | – |

| Binder | CD28 scFv signal in presence of CD28 [1] | CD28 scFv signal [2] | Anti-CD28 Fab signal (phage binding ELISA) [5] | Anti-CD28 Fab signal in the presence of CD28 (phage binding ELISA) [6] | other results |
| --- | --- | --- | --- | --- | --- |
| B16 | 0.25 | 2.59 | – | – | – |
| MDWCPRDMWSECFA (peptide, not shown: large carriers, Clonal phage supernatant) [Phage-31] | 0.293 | 2.7 | – | – | – |
| B17 | – | – | 2.06 | 0.06 | – |
| MDWCPRDLWSECFF (peptide, not shown: large carriers, Clonal phage supernatant) [Phage-28] | 0.218 | 2.57 | – | – | – |
| B18 | – | – | 2.47 | 0.08 | – |
| B19 | – | – | 1.23 | 0.08 | – |
| B20 | – | – | 2.34 | 0.1 | – |
| B21 | – | – | 2.31 | 0.07 | – |
| B22 | – | – | 2.11 | 0.06 | – |
| B23 | 0.242 | 2.71 | – | – | – |
| B24 | 0.489 | 2.04 | – | – | – |
| B25 | – | – | 1.96 | 0.07 | – |
| B26 | – | – | 2.38 | 0.17 | – |
| B27 | 0.219 | 2.7 | – | – | – |
| MDWCPMHLWHQCFN (peptide, not shown: large carriers, Clonal phage supernatant) [Phage-39] | 0.299 | 2.56 | – | – | – |
| B28 | – | – | – | – | Anti-CD28 Fab (SEQ ID NOs: 696, 697) signal [3]: 2.35; Anti-CD28 Fab signal in the presence of CD28 [4]: 0.07 |
| MDWCPLYLWNECFN (peptide, not shown: large carriers, Clonal phage supernatant) [Phage-24] | 0.247 | 2.61 | – | – | – |
